We go through twelve substances from article PMC6056610.

The target in test [1] is BG505 NFL L555P (HIV-1 BG505 (clade A)). Nature of the test: SEC; Superdex 200 16/60 or 10/300 GL after lectin-affinity chromatography; also after negative selection or rEK cleavage where told.
For test [2] the target is unchanged. Nature of the test: negative stain electron microscopy; 2D class averages (RELION) of purified trimers, ~0.01 mg/mL, 0.7% uranyl formate.
Test [3] has as its target 16055 NFL L555P (HIV-1 16055 (clade C)). Nature of the test: SEC; Superdex 200 16/60 or 10/300 GL after lectin-affinity chromatography; also after negative selection or rEK cleavage where told.
Test [4] has the same target. Nature of the test: negative stain electron microscopy; 2D class averages (RELION) of purified trimers, ~0.01 mg/mL, 0.7% uranyl formate.
The target of test [5] is 16055 NFL S553P (HIV-1 16055 (clade C)). Nature of the test: SEC; Superdex 200 16/60 or 10/300 GL after lectin-affinity chromatography; also after negative selection or rEK cleavage where told. In general terms: SEC sorts molecules by how far they enter the pores of the column.
Test [6] addresses 16055 NFL Q562P (HIV-1 16055 (clade C)). The test is described as above.
Test [7] has the same target. Nature of the test: negative stain electron microscopy; 2D class averages (RELION) of purified trimers, ~0.01 mg/mL, 0.7% uranyl formate.
Test [8] deals with 16055 NFL N554P (HIV-1 16055 (clade C)). Nature of the test: SEC; Superdex 200 16/60 or 10/300 GL after lectin-affinity chromatography; also after negative selection or rEK cleavage where told.
For test [9], the target named is BG505 NFL Q562P (HIV-1 BG505 (clade A)). The description is as above.
Test [10] addresses 16055 NFL Q563P (HIV-1 16055 (clade C)). The description is as above.
The target is the same in test [11]. In words: negative stain electron microscopy; 2D class averages (RELION) of purified trimers, ~0.01 mg/mL, 0.7% uranyl formate.
For test [12], the target named is BG505 NFL N554P (HIV-1 BG505 (clade A)). In words: SEC; Superdex 200 16/60 or 10/300 GL after lectin-affinity chromatography; also after negative selection or rEK cleavage where told.
Test [13] concerns the target 16055 NFL I559P (HIV-1 16055 (clade C)). Described as above.
The target of test [14] is BG505 NFL S553P (HIV-1 BG505 (clade A)). The description is as above.
For test [15], the target named is BG505 NFL I559P (HIV-1 BG505 (clade A)). Described as above.
In test [16] the target is BG505 NFL Q563P (HIV-1 BG505 (clade A)). Described as above.

What is called stoichiometry N is a count of units in the complex or per binding partner. In the case of BG505 NFL L555P (domain or fragment), the stoichiometry N in [1] and in test [2] was 3 each time.

For 16055 NFL L555P (domain or fragment), the stoichiometry N in test [3] and in test [4] was 3 each time.

In the case of 16055 NFL S553P (domain or fragment), the stoichiometry N in test [5] was determined as 3. For the substance 16055 NFL Q562P (domain or fragment), the stoichiometry N in [6] and in [7] was 3 throughout. 16055 NFL N554P (domain or fragment): the stoichiometry N in test [8] turned out to be 3. As for BG505 NFL Q562P (domain or fragment), in [9], the stoichiometry N was determined as 3. As for 16055 NFL Q563P (domain or fragment), the stoichiometry N in test [10] and in [11] was 3 each time. As for BG505 NFL N554P (domain or fragment), the stoichiometry N in test [12] stood at 3. Regarding 16055 NFL I559P (domain or fragment), in [13], the stoichiometry N was determined as 3. BG505 NFL S553P (domain or fragment): in [14], the stoichiometry N worked out at 3. As to BG505 NFL I559P (domain or fragment), the stoichiometry N in test [15] is 3.

In the case of BG505 NFL Q563P (domain or fragment), the stoichiometry N in [16] came out at 3.
